Source: US12428627B2, “Mutant p-hydroxyphenylpyruvate dioxygenase, and coding nucleic acid and use thereof” (Qingdao Kingagroot Chemical Compound Co., Ltd., priority 2018, dated 2025)

Test system: rice HPPD (OsHPPD)
Test: Color reaction of recombinant E. coli expressing wild-type or mutant rice HPPD, cultured in 96-well plate in medium containing an HPPD-inhibiting herbicide and tyrosine
Format: cell-based, Oryza sativa
Conditions: compound 101
Summary of the method: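 E. coli clones expressing wild-type or single-site-mutant rice HPPD (residues 51 onward, NNK saturation mutagenesis, pET-44a) grown 24 h at 28 °C in 2×YT with 1 g/L L-Tyr, 0.1 mM IPTG, 0.01 mM MnCl2 and herbicide at 1–20 μM final (tembotrione 1.7 μM, mesotrione 10 μM). Brown homogentisate colour scored semi-quantitatively versus wild type.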

B1: H141R/G342D/D370N: three-site mutant rice HPPD (OsHPPD3M) (protein, listed as Oryza sativa)
chain: MPPTPTPTATTGAVSAAAAAGENAGFRLVGHRRFVRANPRSDRFQALAFHHVELWCADAASAAGRFAFALGAPLAARSDLSTGNSAHASLLLRSASVAFLFTAPYGGDHGVGADAATTASIPSFSPGAARRFAADHGLAVRAVALRVADAADAFRASVAAGARPAFQPADLGGGFGLAEVELYGDVVLRFVSHPDGADAPFLPGFEGVSNPGAVDYGLRRFDHVVGNVPELAPVAAYISGFTGFHEFAEFTAEDVGTAESGLNSVVLANNAETVLLPLNEPVHGTKRRSQIQTYLDHHGGPGVQHIALASDDVLGTLREMRARSAMGGFEFLAPPPPNYYDDVRRRAGDVLSEEQINECQELGVLVDRDNQGVLLQIFTKPVGDRPTFFLEMIQRIGCMEKDESGQEYQKGGCGGFGKGNFSELFKSIEEYEKSLEAKQAPTVQGS
modifications: The amino acid sequence of Wild-Type rice HPPD protein (OsHPPD _WT)
concentration of 101 required to have no significant color reaction: 120 µM
